Data set [1] concerns the target Myc-RhoC (N-terminal Myc epitope-tagged full-length human RhoC).
In data set [2] the target is T1, phosphoinositide-dependent kinase-1 (PDK1), O15530.
T1 chain: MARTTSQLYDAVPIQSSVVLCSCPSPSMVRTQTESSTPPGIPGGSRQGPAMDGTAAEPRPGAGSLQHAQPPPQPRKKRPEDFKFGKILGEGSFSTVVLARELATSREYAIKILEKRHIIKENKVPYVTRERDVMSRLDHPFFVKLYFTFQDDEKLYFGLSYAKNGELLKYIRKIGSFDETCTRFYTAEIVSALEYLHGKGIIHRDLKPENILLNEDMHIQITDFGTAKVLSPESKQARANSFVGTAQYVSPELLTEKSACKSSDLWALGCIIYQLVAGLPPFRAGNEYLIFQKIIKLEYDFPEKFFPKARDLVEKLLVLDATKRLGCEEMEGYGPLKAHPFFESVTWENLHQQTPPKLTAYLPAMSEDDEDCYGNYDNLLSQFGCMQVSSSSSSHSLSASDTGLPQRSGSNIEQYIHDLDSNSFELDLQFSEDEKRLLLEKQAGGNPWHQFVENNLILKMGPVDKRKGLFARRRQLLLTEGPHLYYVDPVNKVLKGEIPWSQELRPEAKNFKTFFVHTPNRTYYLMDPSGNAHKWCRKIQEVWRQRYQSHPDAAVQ

Results on one protein are retold here after patent US20120100561.

Sequence of Myc-RhoC (N-terminal Myc epitope-tagged full-length human RhoC) (chain, as listed by the source): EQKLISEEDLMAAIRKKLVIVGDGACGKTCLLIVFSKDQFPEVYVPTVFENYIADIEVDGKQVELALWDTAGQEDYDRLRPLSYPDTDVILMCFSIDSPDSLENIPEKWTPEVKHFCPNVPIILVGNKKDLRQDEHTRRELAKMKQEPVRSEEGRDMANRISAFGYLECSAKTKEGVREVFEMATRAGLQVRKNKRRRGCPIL

B1: Flag-PKN3 wt (N-terminal Flag epitope-tagged full-length kinase active human PKN3) (protein)
chain: DYKDDDKMEEGAPRQPGPSQWPPEDEKEVIRRAIQKELKIKEGVENLRRVATDRRHLGHVQQLLRSSNRRLEQLHGELRELHARILLPGPGPGPAEPVASGPRPWAEQLRARHLEALRRQLHVELKVKQGAENMTHTCASGTPKERKLLAAAQQMLRDSQLKVALLRMKISSLEASGSPEPGPELLAEELQHRLHVEAAVAEGAKNVVKLLSSRRTQDRKALAEAQAQLQESSQKLDLLRLALEQLLEQLPPAHPLRSRVTRELRAAVPGYPQPSGTPVKPTALTGTLQVRLLGCEQLLTAVPGRSPAAALASSPSEGWLRTKAKHQRGRGELASEVLAVLKVDNRVVGQTGWGQVAEQSWDQTFVIPLERARELEIGVHWRDWRQLCGVAFLRLEDFLDNACHQLSLSLVPQGLLFAQVTFCDPVIERRPRLQRQERIFSKRRGQDFLRASQMNLGMAAWGRLVMNLLPPCSSPSTISPPKGCPRTPTTLREASDPATPSNFLPKKTPLGEEMTPPPKPPRLYLPQEPTSEETPRTKRPHMEPRTRRGPSPPASPTRKPPRLQDFRCLAVLGRGHFGKVLLVQFKGTGKYYAIKALKKQEVLSRDEIESLYCEKRILEAVGCTGHPFLLSLLACFQTSSHACFVTEFVPGGDLMMQIHEDVFPEPQARFYVACVVLGLQFLHEKKIIYRDLKLDNLLLDAQGFLKIADFGLCKEGIGFGDRTSTFCGTPEFLAPEVLTQEAYTRAVDWWGLGVLLYEMLVGECPFPGDTEEEVFDCIVNMDAPYPGFLSVQGLEFIQKLLQKCPEKRLGAGEQDAEEIKVQPFFRTTNWQALLARTIQPPFVPTLCGPADLRYFEGEFTGLPPALTPPAPHSLLTARQQAAFRDFDFVSERFLEP
Take B1: the “kinase activity of the anti-Flag immunoprecipitate toward the PKN3 substrate (GSK3α-derived fragment, SEQ ID NO:1), Western blot” value was “the kinase activity is greatest for the PPRC complex than either PKN3 alone, or PKN3 and RhoC combined” in data set [1]; “the kinase activity is greatest for the PPRC complex than either PKN3 alone, or PKN3 and RhoC combined” in data set [2].
